The source of these data is patent publication US12440565 (ZSKY BIOTECH, dated 2025).

The target in this assay is CD40 on the surface of mature dendritic cells (mDC) (human, UniProt P25942 21-277). Nature of the assay: cell-based or functional assay.
Chain of CD40 on the surface of mature dendritic cells (mDC) (P25942 21-277): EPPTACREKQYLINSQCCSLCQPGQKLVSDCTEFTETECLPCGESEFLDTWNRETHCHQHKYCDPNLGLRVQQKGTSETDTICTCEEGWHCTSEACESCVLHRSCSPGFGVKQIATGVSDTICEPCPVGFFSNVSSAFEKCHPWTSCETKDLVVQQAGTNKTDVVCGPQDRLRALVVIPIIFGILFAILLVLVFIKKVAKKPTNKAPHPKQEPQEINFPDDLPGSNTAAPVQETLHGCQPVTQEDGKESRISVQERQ

B1: CD40-PD-L1-IgG4 bispecific antibody (bispecific antibody)
light 1: DIQMTQSPSSLSASVGDRVTIKCQASQSISSRLAWYQQKPGKPPKLLIYRASTLASGVPSRFSGSGSGTDFTLTISSLQPEDVATYYCQCTGYGISWPIGGGTKVEIKRTVAAPSVFIFPPSDEQLKSGTASVVCLLNNFYPREAKVQWKVDNALQSGNSQESVTEQDSKDSTYSLSSTLTLSKADYEKHKVYACEVTHQGLSSPVTKSFNRGEC
heavy 1: not shown
light 2: QVQLVQSGAEVKKPGASVKVSCKASGYTFTSYWMHWVRQAPGQGLEWMGRIGPNSGFTSYNEKFKNRVTMTRDTSTSTVYMELSSLRSEDTAVYYCARGGSSYDYFDYWGQGTTVTVSSASVAAPSVFIFPPSDRKLKSGTASVVCLLNNFYPREAKVQWKVDNALQSGNSQESVTEQDSKDSTYSLSSTLTLSKADYEKHKVYACEVTHQGLSSPVTKSFNRGEC
heavy 2: DIVLTQSPASLAVSPGQRATITCRASESVSIHGTHLMHWYQQKPGQPPKLLIYAASNLESGVPARFSGSGSGTDFTLTINPVEAEDTANYYCQQSFEDPLTFGQGTKLEIKASTKGPSVFPLAPCSRSTSESTAALGCLVEDYFPEPVTVSWNSGALTSGVHTFPAVLQSSGLYSLSSVVTVPSSSLGTQTYTCNVDHKPSNTKVDEKVESKYGPPCPPCPAPEFEGGPSVFLFPPKPKDTLMISRTPEVTCVVVDVSQEDPEVQFNWYVDGVEVHNAKTKPREEQFNSTYRVVSVLTVLHQDWLNGKEYKCKVSNKGLPSSIEKTISKAKGQPREPQVCTLPPSQEEMTKNQVSLSCAVKGFYPSDIAVEWESNGQPENNYKTTPPVLDSDGSFFLVSRLTVDKSRWQEGNVFSCSVMHEALHNHYTQKSLSLSLGK
Take B1: the “increase rate of CD83 positive ratio over control, bispecific antibody” value came to 19%.
